# Laboratory results reported in patent publication US20080267882A1, “Imaging compounds, methods of making imaging compounds, methods of imaging, therapeutic compounds, methods of making therapeutic compounds, and methods of therapy” (Stanford University, priority 2007, published 2008).
# Where two headings read alike, the source gives them in different places.
# What was measured:
# [1] = molecular target: T1, integrin αvβ3 (Homo sapiens, UniProt P05106+P06756); test: competitive cell binding assay using ^125I-echistatin on U87MG cells; settings: for IC50: n=3, read-out: IC50 (inhibition of ^125I-echistatin binding to U87MG cells)
# T1 construct: evaluated using U87MG cells (integrin αvβ3-positive); endogenous in cells; host or cells: U87MG human glioblastoma cells (ATCC)
# Procedure: Experiments were performed on U87MG human glioblastoma cells with triplicate samples as previously reported.
# In vitro integrin αvβ3-binding affinities and specificities of RGD4, PRGD4 and FPRGD4 were assessed via displacement cell binding assays using ^125I-echistatin as the integrin αvβ3-specific radioligand. Experiments were performed on U87MG human glioblastoma cells by the method previously described (J Nucl Med. 2005;46:1707-1718 J Nucl Med. 2006;47:1172-1180, which is incorporated herein by reference for the corresponding discussion). […] Experiments were performed with triplicate samples.
# Experiments were performed with triplicate samples.
# In vitro integrin-binding affinity and specificity of RGD multimers and DOTA-RGD multimers were assessed via competitive cell binding assays using ^125I-echistatin as the integrin αvβ3-specific radioligand (J Nucl Med. 2005;46:1707-1718, which is incorporated herein by reference for the corresponding discussion). […] Experiments were performed with triplicate samples.
# [2] = test system: U87MG cells; test: cell adhesion assay on vitronectin coated plates; format: cell-based, human; settings: vitronectin coated plates; n=4; read-out: calculated IC50 (inhibition of U87MG cell adhesion)
# Procedure: Ninety-six well plates were coated with 2 μg/mL of fibronectin or vitronectin (Sigma-Aldrich) in PBS at 4° C. overnight and treated with 2% bovine serum albumin (BSA) for 1 h at 37° C. U87MG cells (human glioblastoma, ATCC; 2×10^5 cells/mL) with various concentrations of RGD multimers (50 nM, 200 nM, 800 nM) in 100 μL serum-free Dulbecco's modified Eagle's medium (DMEM) containing 0.1% BSA were incubated for 20 min at 37° C. The resulting mixture was added to the plates and incubated for 1 h at 37° C. Plates treated with BSA only were used as negative control. After removal of the medium by aspiration, 0.04% crystal violet solution was added and incubated for 10 min at room temperature. The wells were washed three times with PBS and 20 μL Triton X-100 were added for permeabilization. Distilled water (80 μL) was then added and the number of adherent cells was assessed with a microplate reader (Tecan; measurement wavelength: 550 nm; reference wavelength: 630 nm).
# [3] = biodistribution of ^3H-PTX and ^3H-RGD2−PTX in MDA-MB-435 tumor-bearing mice; format: in vivo, mouse; settings: female, athymic nude (nu/nu), mouse, iv, 2.9 umol/kg, total radioactivity
# Procedure: (§1) All animal experiments were performed in compliance with the guidelines for the care and use of research animals established by the Stanford University's Animal Studies Committee. Female athymic nude mice (nu/nu) were obtained from Harlan (Indianapolis, Ind.) at 6-8 weeks of age and were kept under sterile conditions. The MDA-MB-435 cells were harvested and suspended in sterile PBS at a concentration of 5×10^7 cells/mL. Viable cells (5×10^6) in PBS (100 μL) were injected orthotopically in the right mammary fat pad. […] Tumor growth was followed by caliper measurements of perpendicular measures of the tumor. The tumor volume was estimated by the formula: tumor volume=a×(b^2)/2, where a and b are the tumor length and width respectively in mm.
# (§2) The animals were euthanized at 4, 24 and 48 h post injection and major organs and tissues were collected correspondingly. Approximately 100 mg of the tissue was added to glass scintillation vials containing 1 mL of tissue solubilizer SoluEne®-350 (Perkin-Elmer, Waltham, Mass.). These samples were digested at 55° C. for overnight followed by bleaching to obtain the decolorized samples. Chemiluminescence was reduced by the addition of glacial acetic acid. Hionic-Fluor liquid scintillation cocktail (Perkin-Elmer) was added to all samples, which were then counted with a Tri-Carb 2800TR liquid scintillation Analyzer (Perkin-Elmer).
# [4] = test system: MDA-MB-435 tumor-bearing mice; test: as above; format: in vivo, mouse
# Procedure: as §1, §2
# [5] = tumor/kidney, read-out: tumor/kidney ratio
# [6] = tumor/liver, read-out: tumor/liver ratio
# [7] = tumor/muscle, read-out: tumor/muscle ratio
structure (smiles),measurement,setting,value
"N=C(N)NCCC[C@@H]1NC(=O)[C@H](CCCCNC(=O)CC[C@H](NC(=O)CC[C@H](NC(=O)COCCOCCOCCNC(=O)c2ccc(F)cc2)C(=O)N[C@@H](CCC(=O)NCCCC[C@@H]2NC(=O)[C@@H](Cc3ccc(O)cc3)NC(=O)[C@H](CC(=O)O)NC(=O)CNC(=O)[C@H](CCCNC(=N)N)NC2=O)C(=O)NCCCC[C@@H]2NC(=O)[C@@H](Cc3ccc(O)cc3)NC(=O)[C@H](CC(=O)O)NC(=O)CNC(=O)[C@H](CCCNC(=N)N)NC2=O)C(=O)NCCCC[C@@H]2NC(=O)[C@@H](Cc3ccc(O)cc3)NC(=O)[C@H](CC(=O)O)NC(=O)CNC(=O)[C@H](CCCNC(=N)N)NC2=O)NC(=O)[C@@H](Cc2ccc(O)cc2)NC(=O)[C@H](CC(=O)O)NC(=O)CNC1=O [FPRGD4, FB-NH-mini-PEG-CO-E{E[c(RGDyK)]2}2]",IC50,[1]; Example 2,37.7 ± 7 nM
"N=C(N)NCCC[C@@H]1NC(=O)[C@H](CCCCNC(=O)CC[C@H](NC(=O)CC[C@H](NC(=S)Nc2ccc(C[C@H]3CN(CC(=O)O)CCN(CC(=O)O)CCN3CC(=O)O)cc2)C(=O)N[C@@H](CCC(=O)NCCCC[C@@H]2NC(=O)[C@@H](Cc3ccc(O)cc3)NC(=O)[C@H](CC(=O)O)NC(=O)CNC(=O)[C@H](CCCNC(=N)N)NC2=O)C(=O)NCCCC[C@@H]2NC(=O)[C@@H](Cc3ccc(O)cc3)NC(=O)[C@H](CC(=O)O)NC(=O)CNC(=O)[C@H](CCCNC(=N)N)NC2=O)C(=O)NCCCC[C@@H]2NC(=O)[C@@H](Cc3ccc(O)cc3)NC(=O)[C@H](CC(=O)O)NC(=O)CNC(=O)[C@H](CCCNC(=N)N)NC2=O)NC(=O)[C@@H](Cc2ccc(O)cc2)NC(=O)[C@H](CC(=O)O)NC(=O)CNC1=O [NOTA-RGD4, NOTA-E{E[c(RGDyK)]2}2]",fold higher integrin αvβ3 affinity than NOTA-RGD1,[1]; Example 5,13 fold
same,fold increase of integrin avidity compared to NOTA-RGD2,[1]; Example 5,3 fold
same,IC50,[1]; Example 5,16.1 ± 3.1 nM
"N=C(N)NCCC[C@@H]1NC(=O)[C@H](CCCCNC(=O)CC[C@H](NC(=O)CC[C@H](NC(=O)COCCOCCOCCN)C(=O)N[C@@H](CCC(=O)NCCCC[C@@H]2NC(=O)[C@@H](Cc3ccc(O)cc3)NC(=O)[C@H](CC(=O)O)NC(=O)CNC(=O)[C@H](CCCNC(=N)N)NC2=O)C(=O)NCCCC[C@@H]2NC(=O)[C@@H](Cc3ccc(O)cc3)NC(=O)[C@H](CC(=O)O)NC(=O)CNC(=O)[C@H](CCCNC(=N)N)NC2=O)C(=O)NCCCC[C@@H]2NC(=O)[C@@H](Cc3ccc(O)cc3)NC(=O)[C@H](CC(=O)O)NC(=O)CNC(=O)[C@H](CCCNC(=N)N)NC2=O)NC(=O)[C@@H](Cc2ccc(O)cc2)NC(=O)[C@H](CC(=O)O)NC(=O)CNC1=O [PRGD4, NH2-mini-PEG-CO-E{E[c(RGDyK)]2}2]",IC50,[1]; Example 2,46.5 ± 5.3 nM
"N=C(N)NCCC[C@@H]1NC(=O)[C@H](CCCCNC(=O)CC[C@H](N)C(=O)NCCCC[C@@H]2NC(=O)[C@@H](Cc3ccc(O)cc3)NC(=O)[C@H](CC(=O)O)NC(=O)CNC(=O)[C@H](CCCNC(=N)N)NC2=O)NC(=O)[C@@H](Cc2ccc(O)cc2)NC(=O)[C@H](CC(=O)O)NC(=O)CNC1=O [RGD2, E[c(RGDyK)]2, reference compound]",IC50,[2],700 nM
CC(=O)O[C@H]1C(=O)[C@@]2(C)[C@H]([C@H](OC(=O)c3ccccc3)[C@]3(O)C[C@H](OC(=O)[C@H](OC(=O)CCC(=O)N[C@@H](CCC(=O)NCCCC[C@@H]4NC(=O)[C@@H](Cc5ccc(O)cc5)NC(=O)[C@H](CC(=O)O)NC(=O)CNC(=O)[C@H](CCCNC(=N)N)NC4=O)C(=O)NCCCC[C@@H]4NC(=O)[C@@H](Cc5ccc(O)cc5)NC(=O)[C@H](CC(=O)O)NC(=O)CNC(=O)[C@H](CCCNC(=N)N)NC4=O)[C@@H](NC(=O)c4ccccc4)c4ccccc4)C(C)=C1C3(C)C)[C@]1(OC(C)=O)CO[C@@H]1C[C@@H]2O [^3H-RGD2−PTX],tissue to tissue ratio at 4 h,[3]; [5],0.25
same,tissue to tissue ratio at 24 h,[3]; [5],0.68
same,tissue to tissue ratio at 48 h,[3]; [5],0.53
same,tissue to tissue ratio at 4 h,[3]; [6],0.29
same,tissue to tissue ratio at 24 h,[3]; [6],0.45
same,tissue to tissue ratio at 48 h,[3]; [6],0.27
same,tissue to tissue ratio at 4 h,[3]; [7],2.86
same,tissue to tissue ratio at 24 h,[3]; [7],2.82
same,tissue to tissue ratio at 48 h,[3]; [7],1.74
same,"tissue concentration, Blood",[4]; 4 h,101.7 ± 30.8 ng/g
same,"tissue concentration, Heart",[4]; 4 h,228.7 ± 29.8 ng/g
same,"tissue concentration, Intestine",[4]; 4 h,127.8 ± 20.3 ng/g
same,"tissue concentration, Kidney",[4]; 4 h,1421.6 ± 289.8 ng/g
same,"tissue concentration, Liver",[4]; 4 h,1252.9 ± 109.9 ng/g
same,"tissue concentration, Lung",[4]; 4 h,300.4 ± 30.9 ng/g
same,"tissue concentration, MDA-MB-435 tumor",[4]; 4 h,357.5 ± 62.62 ng/g
same,"tissue concentration, Muscle",[4]; 4 h,125.1 ± 24.0 ng/g
same,"tissue concentration, Skin",[4]; 4 h,144.1 ± 15.9 ng/g
same,"tissue concentration, Spleen",[4]; 4 h,322.3 ± 59.3 ng/g
same,"tissue concentration, Stomach",[4]; 4 h,119.0 ± 16.7 ng/g
same,tumor/muscle ratio,[4]; 4 h,2.86
same,"tissue concentration, Liver","[4]; 4 h, listed as 3H-RGD2-PTX",1252.9 ± 109.9 ng/g
same,"tissue concentration, MDA-MB-435 tumor","[4]; 4 h, listed as 3H-RGD2-PTX",357.5 ± 62.6 ng/g
same,"tissue concentration, Blood",[4]; 24 h,143.1 ± 18.0 ng/g
same,"tissue concentration, Heart",[4]; 24 h,170.7 ± 18.6 ng/g
same,"tissue concentration, Intestine",[4]; 24 h,52.1 ± 7.5 ng/g
same,"tissue concentration, Kidney",[4]; 24 h,338.9 ± 22.1 ng/g
same,"tissue concentration, Liver",[4]; 24 h,510.4 ± 28.9 ng/g
same,"tissue concentration, Lung",[4]; 24 h,238.6 ± 75.6 ng/g
same,"tissue concentration, MDA-MB-435 tumor",[4]; 24 h,229.4 ± 50.4 ng/g
same,"tissue concentration, Muscle",[4]; 24 h,81.2 ± 11.4 ng/g
same,"tissue concentration, Skin",[4]; 24 h,87.2 ± 16.1 ng/g
same,"tissue concentration, Spleen",[4]; 24 h,228.7 ± 39.4 ng/g
same,"tissue concentration, Stomach",[4]; 24 h,71.63 ± 9.5 ng/g
same,tumor/muscle ratio,[4]; 24 h,2.82
same,"tissue concentration, MDA-MB-435 tumor","[4]; 24 h, listed as 3H-RGD2-PTX",229.4 ± 50.4 ng/g
same,"tissue concentration, Blood",[4]; 48 h,225.4 ± 12.8 ng/g
same,"tissue concentration, Heart",[4]; 48 h,222.5 ± 16.2 ng/g
same,"tissue concentration, Intestine",[4]; 48 h,50.8 ± 9.5 ng/g
same,"tissue concentration, Kidney",[4]; 48 h,281.8 ± 32.6 ng/g
same,"tissue concentration, Liver",[4]; 48 h,545.3 ± 30.6 ng/g
same,"tissue concentration, Lung",[4]; 48 h,207.8 ± 48.2 ng/g
same,"tissue concentration, MDA-MB-435 tumor",[4]; 48 h,148.8 ± 40.2 ng/g
same,"tissue concentration, Muscle",[4]; 48 h,85.6 ± 28.0 ng/g
same,"tissue concentration, Skin",[4]; 48 h,66.0 ± 9.1 ng/g
same,"tissue concentration, Spleen",[4]; 48 h,227.9 ± 28.2 ng/g
same,"tissue concentration, Stomach",[4]; 48 h,71.7 ± 12.2 ng/g
same,tumor/muscle ratio,[4]; 48 h,1.74
same,"tissue concentration, MDA-MB-435 tumor","[4]; 48 h, listed as 3H-RGD2-PTX",148.8 ± 40.2 ng/g
